For experiment [1], the target named is T1, recombinant human IL-17B (R&D Systems) (human, UniProt Q9UHF5 21-180).
T1 construct: also called huIL-17B; hu IL-17B
T1 sequence (looked up): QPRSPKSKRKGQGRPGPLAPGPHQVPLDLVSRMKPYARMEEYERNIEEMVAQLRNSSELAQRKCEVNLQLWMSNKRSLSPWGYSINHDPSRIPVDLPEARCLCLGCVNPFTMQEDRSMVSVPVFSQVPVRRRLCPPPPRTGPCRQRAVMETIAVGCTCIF
The experiment can be described thus: ELISA, coated antigen. In general terms: ELISA stands for enzyme-linked immunosorbent assay.

The target in experiment [2] is T2, recombinant human IL-17D (R&D Systems Cat#1504IL/CF) (human, UniProt Q8TAD2 18-202, limits assumed).
T2 construct: also called huIL-17D; hu IL-17D
T2 sequence (looked up): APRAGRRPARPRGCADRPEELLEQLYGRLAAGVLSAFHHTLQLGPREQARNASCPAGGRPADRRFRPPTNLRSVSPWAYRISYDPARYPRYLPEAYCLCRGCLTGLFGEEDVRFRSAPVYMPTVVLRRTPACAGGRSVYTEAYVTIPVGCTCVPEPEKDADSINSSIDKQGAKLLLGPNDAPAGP
Nature of the experiment: ELISA, coated antigen.

Experiment [3] deals with T3, recombinant human IL-17E (R&D Systems Cat#1258-IL/CF) (human, UniProt Q9H293 33-177).
T3 construct: also called huIL-17E; hu IL-17E
T3 sequence (looked up): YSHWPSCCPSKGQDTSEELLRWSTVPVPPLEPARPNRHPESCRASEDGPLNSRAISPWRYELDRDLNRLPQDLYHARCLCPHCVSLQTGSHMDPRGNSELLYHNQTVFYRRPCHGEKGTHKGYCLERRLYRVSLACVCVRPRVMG
Nature of the experiment: ELISA, coated antigen.

Experiment [4] concerns the target T4, recombinant human IL-17F (SEQ ID NO: 77) (human, UniProt Q96PD4 31-163).
T4 construct: homodimer; also called huIL-17F; rhuIL-17F
T4 sequence: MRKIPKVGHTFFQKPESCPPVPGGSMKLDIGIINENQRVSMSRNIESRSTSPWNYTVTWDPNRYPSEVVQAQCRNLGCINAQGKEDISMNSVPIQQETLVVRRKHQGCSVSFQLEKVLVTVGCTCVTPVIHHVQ
The experiment can be described thus: ELISA, coated antigen, Ab 1 µg/ml.

For experiment [5], the target named is T5, recombinant cynomolgus IL-17A (SEQ ID NO: 79) (cynomolgus monkey, UniProt Q16552 24-155 (human entry), limits assumed).
T5 construct: also called cynoIL-17A; cyno IL-17A
T5 chain: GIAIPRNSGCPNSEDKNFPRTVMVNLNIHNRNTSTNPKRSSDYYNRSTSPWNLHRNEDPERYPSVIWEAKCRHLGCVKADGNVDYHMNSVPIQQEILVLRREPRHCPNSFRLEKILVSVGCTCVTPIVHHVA
Nature of the experiment: ELISA, coated antigen, Ab 1 µg/ml.

Experiment [6] concerns the target T6, recombinant cynomolgus IL-17F (SEQ ID NO: 80) (cynomolgus monkey, UniProt Q96PD4 31-163 (human entry), limits assumed).
T6 construct: also called cynoIL-17F; cyno IL-17F
T6 chain: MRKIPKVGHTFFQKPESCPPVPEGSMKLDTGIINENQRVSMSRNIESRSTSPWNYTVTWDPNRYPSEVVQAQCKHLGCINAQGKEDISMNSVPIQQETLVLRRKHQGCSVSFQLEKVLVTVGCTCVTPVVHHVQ
The experiment can be described thus: ELISA, coated antigen, Ab 1 µg/ml.

Experiment [7] has as its target T7, recombinant rat IL-17A (SEQ ID NO: 85) (rat, UniProt Q61453 18-150).
T7 construct: also called rratIL-17A; rIL-17A
T7 sequence: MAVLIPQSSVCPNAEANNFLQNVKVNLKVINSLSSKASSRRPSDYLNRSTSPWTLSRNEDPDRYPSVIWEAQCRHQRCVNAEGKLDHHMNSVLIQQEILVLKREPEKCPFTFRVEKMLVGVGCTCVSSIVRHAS
Nature of the experiment: ELISA, coated antigen, Ab 1 µg/ml.

Experiment [8] concerns the target T7, recombinant rat IL-17A (SEQ ID NO: 85). The experiment can be described thus: ELISA, coated cytokine, Ab 10 µg/ml.
Experiment [9] concerns the target T8, recombinant rat IL-4 (R&D Systems Cat#504-RL/CF) (rat, UniProt P20096 25-147, limits assumed).
T8 sequence (looked up): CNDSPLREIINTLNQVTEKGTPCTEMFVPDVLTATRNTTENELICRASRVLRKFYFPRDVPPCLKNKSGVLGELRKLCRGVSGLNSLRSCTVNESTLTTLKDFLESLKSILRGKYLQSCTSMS
Nature of the experiment: ELISA, coated cytokine, Ab 10 µg/ml.

Experiment [10] concerns the target T9, recombinant rat IL-6 (R&D Systems Cat#506-RL-010) (rat, UniProt P20607 25-211).
T9 sequence (looked up): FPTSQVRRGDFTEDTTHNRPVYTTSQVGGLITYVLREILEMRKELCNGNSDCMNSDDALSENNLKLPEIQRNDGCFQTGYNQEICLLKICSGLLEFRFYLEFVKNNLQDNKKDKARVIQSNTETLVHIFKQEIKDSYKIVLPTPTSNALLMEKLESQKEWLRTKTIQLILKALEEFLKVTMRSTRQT
Nature of the experiment: ELISA, coated cytokine, Ab 10 µg/ml.

In experiment [11] the target is recombinant rat IL-12 (R&D Systems Cat#1760-RL/CF) (rat). The experiment can be described thus: ELISA, coated cytokine, Ab 10 µg/ml.
In experiment [12] the target is recombinant rat IL-23 (R&D Systems Cat#3136-RL-010/CF) (rat). Nature of the experiment: ELISA, coated cytokine, Ab 10 µg/ml.
Experiment [13] addresses T10, recombinant rat TNFα (R&D Systems Cat#510-RT/CF) (rat, UniProt P16599 80-235).
T10 sequence (looked up): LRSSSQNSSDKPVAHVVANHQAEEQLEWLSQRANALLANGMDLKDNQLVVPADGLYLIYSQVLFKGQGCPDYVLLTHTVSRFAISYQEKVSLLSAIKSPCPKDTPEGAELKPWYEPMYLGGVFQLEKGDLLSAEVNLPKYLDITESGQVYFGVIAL
Nature of the experiment: ELISA, coated cytokine, Ab 10 µg/ml.

Experiment [14] deals with T11, human IL-17A (construct not stated) (human, UniProt Q16552 24-155, limits assumed).
T11 construct: also called huIL-17A; human IL-17A biotin
T11 sequence: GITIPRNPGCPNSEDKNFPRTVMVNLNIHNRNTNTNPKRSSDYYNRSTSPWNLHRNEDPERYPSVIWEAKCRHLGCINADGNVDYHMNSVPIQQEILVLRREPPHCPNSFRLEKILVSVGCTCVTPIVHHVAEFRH
The experiment can be described thus: competition ELISA: biotinylated huIL-17A pre-incubated with antibody, binding to coated huIL-17RA.

B1: XAB4 (antibody, human IgG1, kappa, V domains shown)
VH: EVQLVESGGDLVQPGGSLRLSCAASGFTFSSYWMSWVRQAPGKGLEWVANIKQDGSEKYYVDSVKGRFTISRDNAKNSLYLQMNSLRAEDTAVYYCARDRGSLYYWGQGTLVTVSS
VL: AIQLTQSPSSLSASVGDRVTITCRPSQGINWELAWYQQKPGKAPKLLIYDASSLEQGVPSRFSGSGSGTDFTLTISSLQPEDFATYYCQQFNSYPLTFGGGTKVEIKR
notes: also called MB435 N56Q
One may read the IC50 as the point on the concentration scale where inhibition reaches its midpoint. High values mean lower potency, low ones higher potency. For the molecule B1, the binding result in experiment [1], in [2] and in [3] was “no binding (tested: 1 µg/ml)” in each case. Further, the O.D. in experiment [4] is 0.049 O.D; in [5] it was 1.93 O.D; in experiment [6], 0.085 O.D; in experiment [7] it was 1.77 O.D; in [8], 3.48 O.D; in experiment [9], 0.026 O.D. The O.D. in experiment [10] stood at 0.021 O.D; in experiment [11], 0.009 O.D; in [12], 0.023 O.D; in [13], 0.02 O.D. The molecule further registered an IC50 in experiment [14] of 0.321 nM.

B2: XAB1 (antibody, human IgG1, kappa, V domains shown)
VH: EVQLVESGGDLVQPGGSLRLSCAASGFTFSSYWMSWVRQAPGKGLEWVANIKQDGSEKYYVDSVKGRFTISRDNAKNSLYLQMNSLRAEDTAVYYCARDRGSLYYWGQGTLVTVSS
VL: AIQLTQSPSSLSASVGDRVTITCRPSQGIISALAWYQQKPGKAPKLLIYDASSLENGVPSRFSGSGSGTDFTLTISSLQPEDFATYYCQQFNSYPLTFGGGTKVEIKR
notes: human IgG1/kappa monoclonal antibody; also called parental XAB1; XAB1 IgG
On to B2, for which the binding result in [1], in experiment [2] and in [3] was “no binding (tested: 1 µg/ml)” in each case. Moreover, the O.D. in experiment [8] was 1.2 O.D; in experiment [9] it was 0.017 O.D; in [10] it was 0 O.D; in [11], -0.007 O.D; in experiment [12] it was 0.011 O.D; in experiment [13], 0.003 O.D. Moreover, the IC50 in experiment [14] worked out at 0.83 nM.

For the origin of these results see patent publication US20180194839A1 (Novartis, published 2018).
